The record followed here is patent US20150064184A1.

For test [1], the target named is human insulin receptor extracellular domain (HIR ECD) (human) (UniProt P06213). Nature of the test: ELISA, HIR ECD plated; compared with the HIR Ab. On the technique in general: An ELISA detects its analyte on a solid surface through an enzyme-linked reagent.
For test [2] the target is unchanged. The test can be described thus: ELISA, HIR ECD plated (second experiment).

In general, EC50 refers to the midpoint of the concentration-response curve. A higher EC50 goes with lower potency in that assay. The substance “GUSB-HIR Ab fusion protein (human GUSB fused to the amino terminus of the HIR Ab heavy chain) (from UniProt P08236 23-633) (antibody)” showed a reduction in receptor binding affinity against the HIR Ab in test [1] of 95%. This substance also gave an EC50 in test [2] of 4.8 nM.
